Test: Pharmacokinetic measurement of serum level of 4D7
Format: in vivo, mice
Settings: 12.5 mg/kg intraperitoneal injection; 48 hours post injection
Description: A. Illustration showing bone marrow NSG engraftment model with TPO-independent TF-1 TpoR CALR^del61 cells treated with 4D7 or IgG control twice weekly, starting 7 days after engraftment via intraperitoneal injection and final measurements taken from euthanized mice. B. Pharmacokinetic measurements of serum level of 4D7 in mice after intraperitoneal injection at 1, 24, 48, 72 and 110 hours since administration. C. Percentage of human CD33+myeloid cells measured in peripheral blood at 3 weeks post-tail vein engraftment (n=5 mice per treatment). D. Kaplan-Meier survival curve of bone marrow engraftment model showing improved survival of mice treated with 4D7 compared with IgG control commencing I week after tail vein injection (n=5 mice per treatment). […]
All procedures were approved by the South Australian Health and Medical Research Animal Ethics Committee (Protocol SAM21-018). […] Tail vein bleeds were taken at 3 weeks and analysed via flow cytometry to determine human leukaemia content in the peripheral blood. […] Mice were monitored daily and euthanized once clinical symptoms were observed. […] Additionally, bone marrow from both femurs, spine and spleens were analysed for leukemic content as detailed above. […] Tumour progression was assessed through caliper measurements every 2 days. […]

B1: 4D7: rat monoclonal IgG2a antibody against the mutant CALR neoepitope; VH SEQ ID NO: 5, VL SEQ ID NO: 7 (antibody, listed as Rattus rattus, V domains shown)
VH: QVQLQQSGAELAKPGSSVKISCKASGYTFTNYDMSWIKQRPGQALEWIGAINPGNGVTDYNEKFRGKATLTVDKSSSTAFMQLSSLTPEDTAVYHCAREYRDNYGYFDYWGQGVMVTVSS
VL: DIVLTQTPVSLSVTLGDQASISCRSSQSLEYSDGYTYLDWFLQKPGQSPQLLIYEVSSRFSGVPDRFIGRGSGTDFTLKISRVEPEDLGVYYCFQATHDPFTFGSGTKLEIK
  serum concentration: more than 100 μg/mL

Reference: US20250236667A1, “ANTIBODIES TO MUTANT CALRETICULIN AND USES THEREOF” (CENTRAL ADELAIDE LOCAL HEALTH NETWORK INC, priority 2021, published 2025)
